Test results reported in PMC4132743 (Nucleic Acids Research, 2014).

Biological target: T1, DnaT Y127A/W128A (Escherichia coli K12, UniProt P0A8J2 1-179, Y127A;W128A)
T1 sequence: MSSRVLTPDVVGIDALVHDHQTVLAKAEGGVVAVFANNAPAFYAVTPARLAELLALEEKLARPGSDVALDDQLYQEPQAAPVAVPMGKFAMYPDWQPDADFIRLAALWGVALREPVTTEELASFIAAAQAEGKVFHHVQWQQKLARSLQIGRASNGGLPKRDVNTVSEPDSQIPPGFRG
Assay: fluorescence polarization; almost no detectable binding; Buffer A: 20 mM Tris-HCl pH 7.5, 40 mM NaCl, 5% v/v glycerol, 20 C; FPA 200 nM 5'-FAM DNA, Hill fit; EMSA 30 min at 20 C, gels in 0.5x TBE at 4 C
Conditions: protein: recombinant; tags: His-MBP removed by TEV; label: 5'-FAM

TTTTTTTTTTTTTTTTTTTTTTTTTTTTTT (ssDNA) [5F-dT30]
binding result: no binding
